This is an account of results in patent publication US20200332271.

This series concerns the target dSpCas9 ::KQ KQ insertion (Streptococcus pyogenes) (UniProt Q99ZW2). Description: cell_activity. Conditions: TGG PAM; half the GFP-positive fraction of SpCas9.
UniProt Q99ZW2, sequence (Q99ZW2 whole entry): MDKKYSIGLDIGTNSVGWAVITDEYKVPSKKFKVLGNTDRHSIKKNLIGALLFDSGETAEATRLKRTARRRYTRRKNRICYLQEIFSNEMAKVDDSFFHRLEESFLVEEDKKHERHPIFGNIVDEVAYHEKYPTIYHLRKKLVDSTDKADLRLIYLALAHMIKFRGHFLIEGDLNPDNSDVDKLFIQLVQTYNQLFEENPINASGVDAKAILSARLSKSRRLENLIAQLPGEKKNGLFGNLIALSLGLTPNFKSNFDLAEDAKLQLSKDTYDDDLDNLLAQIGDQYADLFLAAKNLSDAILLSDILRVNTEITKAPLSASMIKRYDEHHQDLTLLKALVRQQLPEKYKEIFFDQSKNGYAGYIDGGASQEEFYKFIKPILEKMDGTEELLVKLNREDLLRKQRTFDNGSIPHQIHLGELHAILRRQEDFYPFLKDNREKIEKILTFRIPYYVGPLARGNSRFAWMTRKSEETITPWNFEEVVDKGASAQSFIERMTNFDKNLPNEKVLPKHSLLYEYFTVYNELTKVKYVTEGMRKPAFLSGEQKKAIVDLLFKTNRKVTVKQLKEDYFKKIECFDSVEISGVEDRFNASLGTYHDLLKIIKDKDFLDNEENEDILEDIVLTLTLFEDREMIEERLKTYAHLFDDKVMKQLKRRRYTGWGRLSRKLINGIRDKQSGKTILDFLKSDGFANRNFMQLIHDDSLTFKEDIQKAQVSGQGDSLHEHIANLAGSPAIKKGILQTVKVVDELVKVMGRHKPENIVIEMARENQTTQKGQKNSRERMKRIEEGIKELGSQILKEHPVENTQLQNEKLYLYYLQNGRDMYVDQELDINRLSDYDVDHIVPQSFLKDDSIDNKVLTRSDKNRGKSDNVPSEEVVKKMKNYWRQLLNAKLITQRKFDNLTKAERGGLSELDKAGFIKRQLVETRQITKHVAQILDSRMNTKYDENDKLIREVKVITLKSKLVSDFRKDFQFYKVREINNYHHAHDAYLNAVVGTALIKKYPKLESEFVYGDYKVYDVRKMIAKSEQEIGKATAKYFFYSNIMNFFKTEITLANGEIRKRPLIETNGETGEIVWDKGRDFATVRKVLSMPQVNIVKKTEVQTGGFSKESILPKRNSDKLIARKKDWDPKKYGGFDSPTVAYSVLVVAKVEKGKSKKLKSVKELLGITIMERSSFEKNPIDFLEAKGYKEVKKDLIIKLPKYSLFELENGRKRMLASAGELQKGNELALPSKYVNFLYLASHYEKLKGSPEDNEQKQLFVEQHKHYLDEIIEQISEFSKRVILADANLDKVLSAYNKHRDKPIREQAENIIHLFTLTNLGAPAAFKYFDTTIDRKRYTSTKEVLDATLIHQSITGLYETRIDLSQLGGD

On to “CGAAAGGUUUUGCACUCGAC / CGAAAGGTTTTGCACTCGACTGG / CCAGTCGAGTGCAAAACCTTTCG [PAM-SCANR sgRNA spacer ; PAM-SCANR protospacer + TGG PAM]”, for which the binding signal (fraction of SpCas9 GFP+ cells) came to 0.5.
